Results taken from publication PMC3285539 (Nature, 2012).
Each block holds one binder with its values, some of them ahead of it.

B1: Rpt6 (natural protein)
chain: MTAAVTSSNIVLETHESGIKPYFEQKIQETELKIRSKTENVRRLEAQRNALNDKVRFIKDELRLLQEPGSYVGEVIKIVSDKKVLVKVQPEGKYIVDVAKDINVKDLKASQRVCLRSDSYMLHKVLENKADPLVSLMMVEKVPDSTYDMVGGLTKQIKEIKEVIELPVKHPELFESLGIAQPKGVILYGPPGTGKTLLARAVAHHTDCKFIRVSGAELVQKYIGEGSRMVRELFVMAREHAPSIIFMDEIDSIGSTRVEGSGGGDSEVQRTMLELLNQLDGFETSKNIKIIMATNRLDILDPALLRPGRIDRKIEFPPPSVAARAEILRIHSRKMNLTRGINLRKVAEKMNGCSGADVKGVCTEAGMYALRERRIHVTQEDFELAVGKVMNKNQETAISVAKLFK
B5: Rpn8 (recombinant lid) (natural protein)
chain: MSLQHEKVTIAPLVLLSALDHYERTQTKENKRCVGVILGDANSSTIRVTNSFALPFEEDEKNSDVWFLDHNYIENMNEMCKKINAKEKLIGWYHSGPKLRASDLKINELFKKYTQNNPLLLIVDVKQQGVGLPTDAYVAIEQVKDDGTSTEKTFLHLPCTIEAEEAEEIGVEHLLRDVRDQAAGGLSIRLTNQLKSLKGLQSKLKDVVEYLDKVINKELPINHTILGKLQDVFNLLPNLGTPDDDEIDVENHDRINISNNLQKALTVKTNDELMVIYISNLVRSIIAFDDLIENKIQNKKIQEQRVKDKQSKVSDDSESESGDKEATAPLIQRKNKKN

Assays:
Rpn7 = target: T1, Rpn7 (S. cerevisiae, UniProt Q06103 1-429); experiment: cryo-EM structure
T1 sequence: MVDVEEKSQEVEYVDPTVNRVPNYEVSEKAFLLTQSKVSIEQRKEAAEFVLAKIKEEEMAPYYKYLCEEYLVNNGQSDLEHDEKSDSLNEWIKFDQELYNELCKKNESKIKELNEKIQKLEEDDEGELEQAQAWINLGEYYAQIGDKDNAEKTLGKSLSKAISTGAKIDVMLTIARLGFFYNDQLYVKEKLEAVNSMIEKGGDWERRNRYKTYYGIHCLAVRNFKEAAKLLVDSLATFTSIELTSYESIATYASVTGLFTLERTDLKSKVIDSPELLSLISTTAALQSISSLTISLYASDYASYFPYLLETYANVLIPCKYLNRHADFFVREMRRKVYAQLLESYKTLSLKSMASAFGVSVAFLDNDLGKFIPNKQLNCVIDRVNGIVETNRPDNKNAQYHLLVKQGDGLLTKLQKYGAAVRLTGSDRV

Rpn2 = target: T2, Rpn2 (S. cerevisiae, UniProt P32565 1-945); experiment: cryo-EM structure
T2 sequence: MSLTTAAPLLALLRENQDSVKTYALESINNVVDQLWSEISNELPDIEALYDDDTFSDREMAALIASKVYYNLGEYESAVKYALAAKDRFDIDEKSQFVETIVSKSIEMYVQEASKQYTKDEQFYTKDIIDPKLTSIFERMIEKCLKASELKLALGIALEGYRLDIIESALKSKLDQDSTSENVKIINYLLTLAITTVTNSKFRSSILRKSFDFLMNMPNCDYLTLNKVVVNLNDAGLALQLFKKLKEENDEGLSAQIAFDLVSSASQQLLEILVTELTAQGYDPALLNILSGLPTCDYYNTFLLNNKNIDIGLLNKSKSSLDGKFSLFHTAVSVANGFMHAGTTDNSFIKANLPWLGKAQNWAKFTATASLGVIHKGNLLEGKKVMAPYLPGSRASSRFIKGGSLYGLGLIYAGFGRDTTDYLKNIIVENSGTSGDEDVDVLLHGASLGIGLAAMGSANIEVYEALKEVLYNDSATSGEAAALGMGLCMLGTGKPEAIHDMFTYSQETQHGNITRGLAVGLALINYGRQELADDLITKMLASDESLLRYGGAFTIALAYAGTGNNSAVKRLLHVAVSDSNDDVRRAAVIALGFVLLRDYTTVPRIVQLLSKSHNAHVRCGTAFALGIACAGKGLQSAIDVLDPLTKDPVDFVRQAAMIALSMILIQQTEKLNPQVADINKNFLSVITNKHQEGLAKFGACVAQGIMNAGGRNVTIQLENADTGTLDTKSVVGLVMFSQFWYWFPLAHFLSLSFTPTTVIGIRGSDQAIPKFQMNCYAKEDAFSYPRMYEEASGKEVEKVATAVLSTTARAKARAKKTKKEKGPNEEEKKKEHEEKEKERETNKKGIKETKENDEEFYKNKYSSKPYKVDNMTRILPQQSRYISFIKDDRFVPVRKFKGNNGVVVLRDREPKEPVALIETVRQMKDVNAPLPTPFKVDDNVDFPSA

Rpn8 (recombinant lid) = target: B5; experiment: negative-stain electron microscopy, 3D reconstruction
Rpn5 (recombinant lid) = target: T3, Rpn5 (recombinant lid) (S. cerevisiae, UniProt Q12250 1-445); experiment: as above
T3 sequence: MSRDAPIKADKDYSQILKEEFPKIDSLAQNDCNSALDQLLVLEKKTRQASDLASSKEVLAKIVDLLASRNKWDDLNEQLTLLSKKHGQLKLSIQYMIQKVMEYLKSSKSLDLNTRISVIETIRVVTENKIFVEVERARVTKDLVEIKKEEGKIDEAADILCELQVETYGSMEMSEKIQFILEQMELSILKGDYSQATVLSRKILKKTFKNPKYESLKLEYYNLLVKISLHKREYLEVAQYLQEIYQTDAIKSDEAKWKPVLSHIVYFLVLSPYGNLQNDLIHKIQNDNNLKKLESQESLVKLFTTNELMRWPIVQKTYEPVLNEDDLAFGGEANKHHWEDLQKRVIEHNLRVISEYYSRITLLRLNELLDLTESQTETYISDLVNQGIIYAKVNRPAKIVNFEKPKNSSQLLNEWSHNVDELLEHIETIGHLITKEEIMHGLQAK

Rpt5 = target: T4, Rpt5 (S. cerevisiae, UniProt P33297 1-434); experiment: cryo-EM structure
T4 sequence: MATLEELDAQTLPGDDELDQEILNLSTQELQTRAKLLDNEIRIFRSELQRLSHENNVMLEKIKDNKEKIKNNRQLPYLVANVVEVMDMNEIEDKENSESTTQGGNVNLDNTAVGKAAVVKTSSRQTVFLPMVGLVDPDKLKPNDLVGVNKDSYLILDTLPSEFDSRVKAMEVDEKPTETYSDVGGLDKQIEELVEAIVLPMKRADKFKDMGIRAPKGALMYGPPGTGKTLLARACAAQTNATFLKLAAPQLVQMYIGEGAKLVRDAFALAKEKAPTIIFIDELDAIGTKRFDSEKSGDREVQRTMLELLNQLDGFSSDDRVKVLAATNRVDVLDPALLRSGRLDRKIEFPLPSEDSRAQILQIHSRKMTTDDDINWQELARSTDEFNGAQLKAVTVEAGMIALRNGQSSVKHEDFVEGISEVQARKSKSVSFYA

Rpt3 = target: T5, Rpt3 (S. cerevisiae, UniProt P33298 1-428); experiment: cryo-EM structure
T5 sequence: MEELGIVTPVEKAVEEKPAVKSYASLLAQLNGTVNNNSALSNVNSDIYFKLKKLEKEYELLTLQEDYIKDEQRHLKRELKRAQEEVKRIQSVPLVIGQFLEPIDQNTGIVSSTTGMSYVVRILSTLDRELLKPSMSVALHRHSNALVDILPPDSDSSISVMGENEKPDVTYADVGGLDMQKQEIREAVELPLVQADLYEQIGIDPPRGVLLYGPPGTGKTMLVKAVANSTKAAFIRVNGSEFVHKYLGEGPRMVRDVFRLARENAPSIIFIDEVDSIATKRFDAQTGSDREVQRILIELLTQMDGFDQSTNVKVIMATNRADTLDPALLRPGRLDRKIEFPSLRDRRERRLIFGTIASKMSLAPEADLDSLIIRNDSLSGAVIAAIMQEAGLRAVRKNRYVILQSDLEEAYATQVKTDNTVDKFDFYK

Rpt6 = target: B1; experiment: cryo-EM structure
Rpn9 (recombinant lid) = target: T6, Rpn9 (recombinant lid) (S. cerevisiae, UniProt Q04062 1-393); experiment: negative-stain electron microscopy, 3D reconstruction
T6 sequence: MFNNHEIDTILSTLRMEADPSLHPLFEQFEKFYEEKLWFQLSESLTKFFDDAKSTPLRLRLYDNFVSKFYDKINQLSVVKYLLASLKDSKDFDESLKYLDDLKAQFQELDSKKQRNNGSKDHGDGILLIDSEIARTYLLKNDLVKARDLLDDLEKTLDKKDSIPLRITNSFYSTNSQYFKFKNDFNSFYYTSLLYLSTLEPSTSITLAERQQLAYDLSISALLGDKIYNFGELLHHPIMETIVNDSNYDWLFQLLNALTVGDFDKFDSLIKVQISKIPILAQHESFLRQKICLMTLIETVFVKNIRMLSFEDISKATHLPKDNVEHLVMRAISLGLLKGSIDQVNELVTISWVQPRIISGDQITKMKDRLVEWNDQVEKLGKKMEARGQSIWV

Binder: B1
binding result (Rpn7): binds
binding result (Rpn2): binds

Binder: B5
binding result (Rpn9 (recombinant lid)): binds

Next, values leading:

binding result (Rpn8 (recombinant lid)): binds
binding result (Rpn5 (recombinant lid)): binds
B2: Rpn11-6xHis (recombinant lid) (enzyme)
chain: MERLQRLMMNSKVGSADTGRDDTKETVYISSIALLKMLKHGRAGVPMEVMGLMLGEFVDDYTVNVVDVFAMPQSGTGVSVEAVDDVFQAKMMDMLKQTGRDQMVVGWYHSHPGFGCWLSSVDVNTQKSFEQLNSRAVAVVVDPIQSVKGKVVIDAFRLIDTGALINNLEPRQTTSNTGLLNKANIQALIHGLNRHYYSLNIDYHKTAKETKMLMNLHKEQWQSGLKMYDYEEKEESNLAATKSMVKIAEQYSKRIEEEKELTEEELKTRYVGRQDPKKHLSETADETLENNIVSVLTAGVNSVAIK

binding result (Rpt5): binds
B3: 20S core subunit α6 (natural protein)
chain: MFRNNYDGDTVTFSPTGRLFQVEYALEAIKQGSVTVGLRSNTHAVLVALKRNADELSSYQKKIIKCDEHMGLSLAGLAPDARVLSNYLRQQCNYSSLVFNRKLAVERAGHLLCDKAQKNTQSYGGRPYGVGLLIIGYDKSGAHLLEFQPSGNVTELYGTAIGARSQGAKTYLERTLDTFIKIDGNPDELIKAGVEAISQSLRDESLTVDNLSIAIVGKDTPFTIYDGEAVAKYI

binding result (Rpt3): binds
binding result (Rpt6): binds
B4: Rpn8 (natural protein)
chain: MSLQHEKVTIAPLVLLSALDHYERTQTKENKRCVGVILGDANSSTIRVTNSFALPFEEDEKNSDVWFLDHNYIENMNEMCKKINAKEKLIGWYHSGPKLRASDLKINELFKKYTQNNPLLLIVDVKQQGVGLPTDAYVAIEQVKDDGTSTEKTFLHLPCTIEAEEAEEIGVEHLLRDVRDQAAGGLSIRLTNQLKSLKGLQSKLKDVVEYLDKVINKELPINHTILGKLQDVFNLLPNLGTPDDDEIDVENHDRINISNNLQKALTVKTNDELMVIYISNLVRSIIAFDDLIENKIQNKKIQEQRVKDKQSKVSDDSESESGDKEATAPLIQRKNKKN
